These results are taken from US20050113303.

The series deals with [D-Ala^2,Leu^5]enkephalin.

B1: recombinant human NEP (neprilysin, expressed from human NEP cDNA in COS-7 cells) (protein)
chain: MESQMDITDINTPKPKKKQRWTPLEISLSVLVLLLTIIAVTMIALYATYDDGICKSSDCIKSAARLIQNMDATTEPCTDFFKYACGGWLKRNVIPETSSRYGNFDILRDELEVVLKDVLQEPKTEDIVAVQKAKALYRSCINESAIDSRGGEPLLKLLPDIYGWPVATENWEQKYGASWTAEKAIAQLNSKYGKKVLINLFVGTDDKNSVNHVIHIDQPRLGLPSRDYYECTGIYKEACTAYVDFMISVARLIRQEERLPIDENQLALEMNKVMELEKEIANATAKPEDRNDPMLLYNKMTLAQIQNNFSLEINGKPFSWLNFTNEIMSTVNISITNEEDVVVYAPEYLTKLKPILTKYSARDLQNLMSWRFIMDLVSSLSRTYKESRNAFRKALYGTTSETATWRRCANYVNGNMENAVGRLYVEAAFAGESKHVVEDLIAQIREVFIQTLDDLTWMDAETKKRAEEKALAIKERIGYPDDIVSNDNKLNNEYLELNYKEDEYFENIIQNLKFSQSKQLKKLREKVDKDEWISGAAVVNAFYSSGRNQIVFPAGILQPPFFSAQQSNSLNYGGIGMVIGHEITHGFDDNGRNFNKDGDLVDWWTQQSASNFKEQSQCMVYQYGNFSWDLAGGQHLNGINTLGENIADNGGLGQAYRAYQNYIKKNGEEKLLPGLDLNHKQLFFLNFAQVWCGTYRPEYAVNSIKTDVHSPGNFRIIGTLQNSAEFSEAFHCRKNSYMNPEKKCRVW
B1: the “production of Tyr-D-Ala-Gly from the substrate, HPLC” value is listed as “production of Tyr-D-Ala-Gly from the substrate was evident only in NEP-expressing membrane preparations”.

B2: recombinant human PEX protein (full-length, expressed from plasmid pPEX in COS-7 cells) (protein)
chain: MEAETGSSVETGKKANRGTRIALVVFVGGTLVLGTILFLVSQGLLSLQAKQEYCLKPECIEAAAAILSKVNLSVDPCDNFFRFACDGWISNNPIPEDMPSYGVYPWLRHNVDLKLKELLEKSISRRRDTEAIQKAKILYSSCMNEKAIEKADGKPLLHILRHSPFRWPVLESNIGPEGVWSERKFSLLQTLATFRGQYSNSVFIRLYVSPDDKASNEHILKLDQATLSLAVREDYLDNSTEAKSYRDALYKFMVDTAVLLGANSSRAEHDMKSVLRLEIKIAEIMIPHENRTSEAMYNKMNISELSAMIPQFDWLGYIKKVIDTRLYPHLKDISPSENVVVRVPQYFKDLFRILGSERKKTIDNYLVWRMVYSRIPNLSRRFQYRWLEFSRVIQGTTTLLPQRDKCVNFIESALPYVVGKMFVDVYFQEDKKEMMEELVEGVRWAFIDMLEKENEWMDAGTKRKAKEKARAVLAKVGYPEFIMNDTHVNEDLKAIKFSEADYFGNVLQTRKYLAQSDFFWLRKAVPKTEWFTNPTTVNAFYSASTNQIRFPAGELQKPFFWGTEYPRSLSYGAIGVIVGHEFTHGFDNNGRKYDKNGNLDPWWSTESEEKFKEKTKCMINQYSNYYWKKAGLNVKGKRTLGENIADNGGLREAFRAYRKWINDRRQGLEEPLLPGITFTNNQLFFLSYAHVRCNSYRPEAAREQVQIGAHSPPQFRVNGAISNFEEFQKAFNCPPNSTMNRGMDSCRLW
Consider B2, for which the “production of Tyr-D-Ala-Gly from the substrate, HPLC” value is on record as “production of Tyr-D-Ala-Gly from the substrate was evident only in NEP-expressing membrane preparations”.
